In PMC2291563, “SAM Domain-Based Protein Oligomerization Observed by Live-Cell Fluorescence Fluctuation Spectroscopy” (PLoS ONE, 2008):

T1: Ste50-mCherry (budding yeast (S288C background), UniProt P25344 1-346)
T1 construct: Ste50, SAM domain protein, budding yeast; tagged at the chromosomal locus; source: expressed from its chromosomal locus in live yeast cells (S288C background); not shown: mCherry, C-terminal, kept
T1 sequence (looked up): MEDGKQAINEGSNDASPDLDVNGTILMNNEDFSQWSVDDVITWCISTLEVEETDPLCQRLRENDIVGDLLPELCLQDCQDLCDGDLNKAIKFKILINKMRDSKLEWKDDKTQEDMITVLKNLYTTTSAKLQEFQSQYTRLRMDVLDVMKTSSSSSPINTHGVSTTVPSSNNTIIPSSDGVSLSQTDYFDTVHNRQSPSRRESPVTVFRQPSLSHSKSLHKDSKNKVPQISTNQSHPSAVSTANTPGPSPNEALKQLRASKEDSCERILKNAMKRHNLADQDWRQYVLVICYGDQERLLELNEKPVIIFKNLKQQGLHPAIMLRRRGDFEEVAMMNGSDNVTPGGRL

B1: Ste50-GFP (natural protein, budding yeast (S288C background), UniProt P25344 1-346, looked up)
chain: T1 sequence (looked up)
notes: Ste50, SAM domain protein, budding yeast; tagged at the chromosomal locus; source: expressed from its chromosomal locus in live yeast cells (S288C background); not shown: GFP, C-terminal, kept
B2: Ste11-GFP (natural protein, budding yeast (S288C background), UniProt P23561 1-717, looked up)
chain: MEQTQTAEGTDLLIGDEKTNDLPFVQLFLEEIGCTQYLDSFIQCNLVTEEEIKYLDKDILIALGVNKIGDRLKILRKSKSFQRDKRIEQVNRLKNLMEKVSSLSTATLSMNSELIPEKHCVIFILNDGSAKKVNVNGCFNADSIKKRLIRRLPHELLATNSNGEVTKMVQDYDVFVLDYTKNVLHLLYDVELVTICHANDRVEKNRLIFVSKDQTPSDKAISTSKKLYLRTLSALSQVGPSSSNLLAQNKGISHNNAEGKLRIDNTEKDRIRQIFNQRPPSEFISTNLAGYFPHTDMKRLQKTMRESFRHSARLSIAQRRPLSAESNNIGDILLKHSNAVDMALLQGLDQTRLSSKLDTTKIPKLAHKRPEDNDAISNQLELLSVESGEEEDHDFFGEDSDIVSLPTKIATPKNWLKGACIGSGSFGSVYLGMNAHTGELMAVKQVEIKNNNIGVPTDNNKQANSDENNEQEEQQEKIEDVGAVSHPKTNQNIHRKMVDALQHEMNLLKELHHENIVTYYGASQEGGNLNIFLEYVPGGSVSSMLNNYGPFEESLITNFTRQILIGVAYLHKKNIIHRDIKGANILIDIKGCVKITDFGISKKLSPLNKKQNKRASLQGSVFWMSPEVVKQTATTAKADIWSTGCVVIEMFTGKHPFPDFSQMQAIFKIGTNTTPEIPSWATSEGKNFLRKAFELDYQYRPSALELLQHPWLDAHII
notes: Ste11, MAP kinase kinase kinase with a SAM domain, budding yeast; tagged at the chromosomal locus; source: expressed from its chromosomal locus in live yeast cells (S288C background); not shown: GFP, C-terminal, kept

Assays:
[1] = target: the molecule itself; assay: photon counting histogram (1dPCH), constrained two-component fit; live yeast cells treated with α-factor; monomer brightness fixed, oligomer brightness and numbers freely varied; subunits estimated from a linear extrapolation of GFP brightness
[2] = target: the molecule itself; assay: photon counting histogram (1dPCH), constrained two-component fit; live yeast cells, cycling; monomer brightness fixed, oligomer brightness and numbers freely varied; subunits estimated from a linear extrapolation of GFP brightness
[3] = target: the molecule itself; assay: photon counting histogram (1dPCH), constrained two-component fit; live yeast cells at high salt (NaCl); monomer brightness fixed, oligomer brightness and numbers freely varied; subunits estimated from a linear extrapolation of GFP brightness
[4] = target: T1, Ste50-mCherry; assay: two-dimensional photon counting histogram (2dPCH); live yeast cells with Ste11-GFP and Ste50-mCherry, cytosolic pool; 50 µs bins; two-component fit; cycling cells, also after α-factor or NaCl; conditions: partners not purified

Binder | stoichiometry N [1] | stoichiometry N [2] | stoichiometry N [3] | stoichiometry N [4]
B1 | ~4 | 5 to 6 | 3 to 4 | –
B2 | – | – | – | 2 Ste11 per Ste50
